US20110289632A1, “METHYLKETONE SYNTHASE, PRODUCTION OF METHYLKETONES IN PLANTS AND BACTERIA” (The Regents of the University of Michigan, priority 2009, published 2011)

Substrate: CCCCCCCCCCCC(=O)CC(=O)O
Experiment: Steady-state kinetic decarboxylase assay (3-ketomyristic acid to 2-tridecanone, GC-MS)
Format: biochemical, Solanum habrochaites f glabratum
Settings: other: ShMKS1 decarboxylase, substrate 5 μM to 75 μM, pH 7.0, 23° C., 10 min
Protocol: To examine the possible decarboxylase activity of ShMKS1 as well as ShMKS2 in vitro, we tested homogenous recombinant ShMKS1 and partially purified recombinant ShMKS2 proteins (without their transit peptides) for their ability to convert 3-ketomyristic acid into its 2-tridecanone decarboxylated product. […] In steady-state kinetic assays, ShMKS1 was determined to have a KM of 18.4±5.6 μM for 3-ketomyristic acid, with an apparent kcat of 227.9±24.1 min^−1.
His-tagged ShMKS1 and ShMKS2 were affinity-purified on Nickel-agarose chromatography using the protocol described in Fridman et al., (2005) Metabolic, genomic, and biochemical analyses of glandular trichomes from the wild tomato species Lycopersicon hirsutum identify a key enzyme in the biosynthesis of methylketones, Plant Cell 17: 1252-1267. After elution from the Nickel-agarose column, the proteins were analyzed by SDS-PAGE and ShMKS2 dialyzed against 50 mM phosphate buffer pH 6.8, 500 mM NaCl, and 1M (NH4)2SO4, and 2 mM DTT and ShMKS1 dialyzed against 12.5 mM phosphate buffer pH 6.8, 50 mM NaCl, and 2 mM DTT. ShMKS1 purity was estimated at 99%, and ShMKS2 purity was estimated at 6%.
A typical decarboxylase assay consisted of a 500 μL reaction solution containing ShMKS1 or ShMKS2 (2.5 μg), 3-ketomyristic acid (0.1 mM), and 1,3-bis(tris(hydroxymethyl)methylamino) propane—Na^+ (20 mM, pH 7.0). […]

B1: Solanum habrochaites f glabratum methylketone synthase 1 (ShMKS1), recombinant His-tagged, SEQ ID NO: 17 (Solanum habrochaites) (protein)
chain: MEKSMSPFVKKHFVLVHTAFHGAWCWYKIVALMRSSGHNVTALDLGASGINPKQALQIPNFSDYLSPLMEFMASLPANEKIILVGHALGGLAISKAMETFPEKISVAVFLSGLMPGPNIDATTVCTKAGSAVLGQLDNCVTYENGPTNPPTTLIAGPKFLATNVYHLSPIEDLALATALVRPLYLYLAEDISKEVVLSSKRYGSVKRVFIVATENDALKKEFLKLMIEKNPPDEVKEIEGSDHVTMMSKPQQLFTTLLSIANKYK
notes: no cleavable transit peptide, 265-residue protein
**Q.** B1 was tested. Which Km did it give?
**A.** 18.4 ± 5.6 µM

**Q.** And the kcat?
**A.** 3.798 ± 0.402 s⁻¹
